Target: CFF-Myc (UniProt P01732)
Assay: co-IP

fold more TNPO1 co-IPed in the presence of Rab8-T22N than -Q67L or -wt: 3 fold
Substance: HA-TNPO1 (from UniProt Q92973 1-898) (natural protein)

Source: article doi:10.1101/059451
